The values that follow come from patent publication US20250243471A1.

Experiment [1] deals with PhiV-1 gp8 portal protein (coliphage PhiV-1). The experiment is described as follows: cryo-EM structure of the EcAvs4-portal complex.
The target in experiment [2] is EcAvs4 Q63A/K65A with internal TwinStrep tag between residues 114 and 115 (cryo-EM construct) (Escherichia coli NCTC11132). The experiment in a line: cryo-EM; interface between adjacent STAND ATPase domains in the portal-bound EcAvs4 tetramer.
Experiment [3] has as its target PhiV-1 gp8 portal protein (coliphage PhiV-1). The experiment is described as follows: cell-based or functional assay.
In experiment [4] the target is PhiV-1 gp19 large terminase subunit (coliphage PhiV-1). The experiment is described as follows: cell-based or functional assay.
The target of experiment [5] is SeAvs3 from Salmonella enterica NCTC13175 with C-terminal 6xHis tag (purified recombinant) (Salmonella enterica NCTC13175). The experiment in a line: cryo-EM; interface between adjacent STAND ATPase domains in the terminase-bound SeAvs3 tetramer.
The target in experiment [6] is PhiV-1 gp19 large terminase subunit (coliphage PhiV-1). The experiment in a line: cryo-EM structure of the SeAvs3-terminase complex.
For experiment [7], the target named is PhiV-1 gp19 terminase with StrepTag (gp19-StrepTag) (coliphage PhiV-1). The experiment is described as follows: tandem affinity purification (Ni-NTA, Strep-Tactin), Superose 6 Increase peak, SDS-PAGE band intensity.

As to “EcAvs4 Q63A/K65A with internal TwinStrep tag between residues 114 and 115 (cryo-EM construct) (receptor)”, the buried solvent-accessible surface area in experiment [1] is 5800 Å2. Further, the buried surface area in experiment [2] is 1230 Å^2.
Take “EcAvs4 from Escherichia coli NCTC11132 expressed in E. coli (genetic assays) (receptor)”: the results for the Abundance relative to E. coli NovaBlue control (PhiV-1 fragment screen, deep sequencing of surviving plasmids) in experiment [3] and in experiment [4] were under 0.0001 and 0.11, respectively.
Take “SeAvs3 from Salmonella enterica NCTC13175 expressed in E. coli (genetic assays) (receptor)”: the Abundance relative to E. coli NovaBlue control (PhiV-1 fragment screen, deep sequencing of surviving plasmids) is 0.65 in experiment [3] and under 0.0001 in experiment [4].
Regarding “SeAvs3 from Salmonella enterica NCTC13175 with C-terminal 6xHis tag (purified recombinant) (receptor)”, the buried surface area in experiment [5] was 436 Å^2. For the same substance, the buried solvent-accessible surface area in experiment [6] was over 3700 Å2. The ratio of SeAvs3 and gp19 in the complex peak (SeAvs3:gp19 ratio) in experiment [7] is 1.
